# According to patent US20240082342A1, “PEPTIDE THERAPEUTICS FOR INCREASING LUNG CELL VIABILITY” (BOARD OF REGENTS, THE UNIVERSITY OF TEXAS SYSTEM, priority 2018, published 2024):
# B1: IL-17A: recombinant interleukin 17A used to induce A2C injury in vitro and in mice (protein, UniProt Q62386 26-158, looked up)
# Interleukin-17A: AAIIPQSSACPNTEAKDFLQNVKVNLKVFNSLGAKVSSRRPSDYLNRSTSPWTLHRNEDPDRYPSVIWEAQCRHQRCVNAEGKLDHHMNSVLIQQEILVLKREPESCPFTFRVEKMLVGVGCTCVASIVRQAA
# Key:
# LECs = settings: in vitro and in vivo; cited from earlier work
# [1] = system: A2ECs treated with IL-17A; test: A2ECs exposed to IL-17A in vitro; assay type: cell-based, mouse
# Description: FIGS. 49A-49B show the role of IL-17A in PTS-induced p53, PAI-1 expression, and apoptosis in A2ECs. (A) IL-17A^−/− mice resist PTS-induced p53 expression and apoptosis in A2ECs. Mice were kept in ambient AIR or exposed to 20 weeks of PTS. A2ECs isolated from WT and IL-17A^−/− mice in AIR or exposed to PTS were analyzed for acetylated/total p53, Sirt1 and activated caspase-3 to assess apoptosis by Western blotting. (B) CSP inhibits IL-17A-induced p53 and PAI-1 expression and apoptosis in A2ECs in vitro. A2ECs isolated from WT mice were treated with PBS or IL-17A (100 ng/ml) in the presence or absence of CSP or control peptide, CP for 24 h in culture dishes. A2EC lysates were immunoblotted for p53, PAI-1, Cl./total caspase-3 and β-actin. WT mice exposed to IL-17A (FIG. 48D) and PTS (FIG. 46A) induce p53 acetylation and Cav1 expression, while inhibiting Sirt1 in A2ECs.
# FIGS. 58A-58B show a 7-amino acid fragment of CSP, CSP7 Inhibits IL-17A-induced A2EC apoptosis. (A) Fragments of CSP were synthesized as shown. (B) A2ECs were treated with CSP or its fragments, or CP, 2 h after exposure of cells to IL-17A. A2EC lysates were immunoblotted for acetylated/total p53 and active/total caspase-3 24 h after IL-17A exposure. β-actin levels were evaluated to assess equal loading.
# Increased p53 and apoptosis in A2ECs of mice exposed to PTS or IL-17A provided evidence that PTS acts by increasing IL-17A. To confirm that increased IL-17A contributes to the induction of p53 and PAI-1 expression, and apoptosis in A2ECs during PTS-induced lung injury, IL-17A-deficient mice were exposed to 20 weeks of PTS and control mice were kept in ambient air. A2ECs were tested for p53^AC, p53 and Sirt1 expression, and apoptosis. The responses were compared with changes in A2ECs isolated from WT mice exposed to 20 weeks of PTS or AIR. There was marked induction of p53^AC and p53 levels, and apoptosis with parallel suppression of Sirt1 expression in WT mice exposed to 20 weeks of PTS. […] To confirm mitigation of PTS induced lung injury by CSP or CSP7 involves suppression of IL-17A-induced p53, PAI-1 and apoptosis, A2ECs isolated from WT mice were next treated with IL-17A (100 ng/ml) with or without CSP, CSP7 or CP. Control cells were treated with vehicle (PBS) alone. The A2EC lysates were tested for p53 and p53-mediated downstream induction of PAI-1, and apoptosis. […] Further, induction of miR-34a increased p53 and apoptosis in A2ECs without exposure to tobacco smoke, while inhibition of miR-34a using miR-34a antisense (miR-34a-AS) reduced cigarette smoke induced p53 expression and apoptosis. Results of both in vitro and in vivo experiments support an intricate link between miR-34a, p53^AC, p53 and p53-mediated induction of PAI-1 expression, and A2EC apoptosis during PTS lung injury.
# BAL cells = test: BAL cell counts in mice treated with IL-17A or Pre-miR-34a; assay type: in vivo, mouse
# [2] = system: ATII cells and BALF of IL-17A treated mice; test: IL-17A-induced lung injury in mice; assay type: in vivo, mouse; settings: WT mice exposed to recombinant IL-17A, 24 h
# Description: IL-17A is induced in passive tobacco smoke (PTS) exposed lung injury. […] Further, IL-17A induced ^p15Sp53 was inhibited following treatment of mice CSP7 when compared with those treated with saline and control peptide. To further test whether IL-17A induced ^p15Sp53 alters PAI-1 expression and ATII apoptosis, ATII cells of IL-17A treated mice for PAI-1 and apoptotic markers were analyzed. IL-17A induced the expression of PAI-1 and cl.Cas-3, and inhibited Sirt-1 expression in ATII cells. […] In addition, CSP7 treatment found to inhibit serine phosphorylation of p53 by neutralizing elevated IL-17A due to PTS exposure.
# To test the importance of miR-34a mediated deacetylation of p53 IL-17A or PTS induced lung injury, miR34a conditional knockout mice were treated with tamoxifen. miR34a conditional knockout mice treated with IL-17A (3 μg/mice) was administered with CSP7 and CP a day later. ATII cells isolated from these mice were screened for PAI-1, Sirt-1 and apoptotic markers. […] Further, CSP7 treatment had little effect in miR-34a^cKo mice since these mice resist IL-17A or PTS injury.
Molecule,BLM-induced apoptosis of LECs and subsequent pulmonary fibrosis (LECs),PAI-1 expression or apoptosis ([1]; A2ECs lacking p53 expression),"p53 and PAI-1 expression and apoptosis ([1]; mouse and human A2ECs, IL-17A alone)",percentage of PMN in total BAL cells (BAL cells) [%],total BAL cells (BAL cells),"total and acetylated p53, apoptosis and Cav1 expression in A2ECs [2]"
"NYHYLESSMTALYTLGH (listed as Homo sapiens) [PP-2, 17 residue peptide]",protected LECs from BLM-induced apoptosis in vitro and in vivo,–,–,–,–,–
B1,–,failed to induce PAI-1 expression or apoptosis,"induced expression of both p53 and PAI-1, and also apoptosis",11.27,two-fold increase,"marked increase in total and acetylated p53, apoptosis and induced Cav1 expression"
